In paper PMC10215022:

Experiments:
[1] = target: SARS-CoV-2 Delta (B.1.617.2) spike protein RBD, His-tagged (SARS-CoV-2 Delta (B.1.617.2)) (UniProt P0DTC2); assay: SPR
[2] = target: SARS-CoV-2 Omicron (B.1.1.529) spike protein RBD, His-tagged (SARS-CoV-2 Omicron (B.1.1.529)) (UniProt P0DTC2); assay: SPR

decavalent IgM ACE2 decoy (from UniProt Q9BYF1;P01591) (Fc fusion)
Kd [1]: 0.49 nM | koff [1]: 0.00013 s⁻¹ | kon [1]: 260000 M⁻¹ s⁻¹ | Kd [2]: 2.4 nM | koff [2]: 0.00036 s⁻¹ | kon [2]: 150000 M⁻¹ s⁻¹
